The record followed here is patent publication US20030219813A1 (Takeda / Millennium, published 2003).

Sequences and labels used below:
T1: SCUBE1.Myc (human SCUBE1 tagged with Myc at the C-terminus, endogenous signal peptide) (human, UniProt Q8IWY4 23-988)
T1 construct: Expressed by transient transfection in HEK-293 / 293T cells; also called Myc-tagged human SCUBE1
T1 chain: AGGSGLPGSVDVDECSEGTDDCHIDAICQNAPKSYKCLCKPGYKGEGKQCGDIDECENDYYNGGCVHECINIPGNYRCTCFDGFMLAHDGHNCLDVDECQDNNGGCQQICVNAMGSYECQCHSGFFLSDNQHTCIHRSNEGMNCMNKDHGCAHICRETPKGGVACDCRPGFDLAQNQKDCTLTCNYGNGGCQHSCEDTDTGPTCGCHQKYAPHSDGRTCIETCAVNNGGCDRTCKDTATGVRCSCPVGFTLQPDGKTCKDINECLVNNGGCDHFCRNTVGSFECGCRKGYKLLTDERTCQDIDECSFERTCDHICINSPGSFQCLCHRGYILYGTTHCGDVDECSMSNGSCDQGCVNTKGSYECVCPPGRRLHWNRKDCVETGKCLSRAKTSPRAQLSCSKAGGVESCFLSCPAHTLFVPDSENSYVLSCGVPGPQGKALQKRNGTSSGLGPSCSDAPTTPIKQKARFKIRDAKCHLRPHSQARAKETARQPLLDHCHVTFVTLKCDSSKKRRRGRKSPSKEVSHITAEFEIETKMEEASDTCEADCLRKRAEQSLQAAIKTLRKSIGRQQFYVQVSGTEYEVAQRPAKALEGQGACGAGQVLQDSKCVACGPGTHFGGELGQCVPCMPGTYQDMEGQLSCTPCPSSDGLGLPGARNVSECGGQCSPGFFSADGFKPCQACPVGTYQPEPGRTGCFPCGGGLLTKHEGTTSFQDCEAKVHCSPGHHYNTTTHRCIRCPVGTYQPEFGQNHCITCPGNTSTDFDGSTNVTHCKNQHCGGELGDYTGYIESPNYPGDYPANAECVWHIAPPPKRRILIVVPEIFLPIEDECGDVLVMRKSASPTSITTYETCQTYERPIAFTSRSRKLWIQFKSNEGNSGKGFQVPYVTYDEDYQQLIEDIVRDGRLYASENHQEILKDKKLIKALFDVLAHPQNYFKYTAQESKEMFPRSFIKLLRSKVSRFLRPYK

B1: human SCUBE2 (SEQ ID NO:4) (other)
chain: RAAGPQEDVDECAQGLDDCHADALCQNTPTSYKCSCKPGYQGEGRQCEDIDECGNELNGGCVHDCLNIPGNYRCTCFDGFMLAHDGHNCLDVDECLENNGGCQHTCVNVMGSYECCCKEGFFLSDNQHTCIHRSEEGLSCMNKDHGCSHICKEAPRGSVACECRPGFELAKNQRDCILTCNHGNGGCQHSCDDTADGPECSCHPQYKMHTDGRSCLEREDTVLEVTESNTTSVVDGDKRVKRRLLMETCAVNNGGCDRTCKDTSTGVHCSCPVGFTLQLDGKTCKDIDECQTRNGGCDHFCKNIVGSFDCGCKKGFKLLTDEKSCQDVDECSLDRTCDHSCINHPGTFACACNRGYTLYGFTHCGDVTTIRTSVTFKLNEGKCSLKNAELFPEGLRPALPEKHSSVKESFRYVNLTCSSGKQVPGAPGRPSTPKEMFITVEFELETNQKEVTASCDLSCIVKRTEKRLRKAIRTLRKAVHREQFHLQLSGMNLDVAKKPPRTSERQAESCGVGQGHAENQCVSCRAGTYYDGARERCILCPNGTFQNEEGQMTCEPCPRPGNSGALKTPEAWNMSECGGLCQPGEYSADGFAPCQLCALGTFQPEAGRTSCFPCGGGLATKHQGATSFQDCETRVQCSPGHFYNTTTHRCIRCPVGTYQPEFGKNNCVSCPGNTTTDFDGSTNITQCKNRRCGGELGDFTGYIESPNYPGNYPANTECTWTINPPPKRRILIVVPEIFLPIEDDCGDYLVMRKTSSSNSVTTYETCQTYERPIAFTSRSKKLWIQFKSNEGNSARGFQVPYVTYDEDYQELIEDIVRDGRLYASENHQEILKDKKLIKALFDVLAHPQNYFKYTAQESREMFPRSFIRLLRSKVSRFLRPYK
notes: protein of 919 amino acids; also called recombinantly expressed SCUBE2
B2: Flag.SCUBE1-D2 (Flag-tagged deletion construct 2 of human SCUBE1, amino acids 26-411 of SEQ ID NO:2; spacer, 10th EGF-like domain and CUB domain deleted) (other, not shown: small tags and cut ends)
chain: SGLPGSVDVDECSEGTDDCHIDAICQNAPKSYKCLCKPGYKGEGKQCGDIDECENDYYNGGCVHECINIPGNYRCTCFDGFMLAHDGHNCLDVDECQDNNGGCQQICVNAMGSYECQCHSGFFLSDNQHTCIHRSNEGMNCMNKDHGCAHICRETPKGGVACDCRPGFDLAQNQKDCTLTCNYGNGGCQHSCEDTDTGPTCGCHQKYAPHSDGRTCIETCAVNNGGCDRTCKDTATGVRCSCPVGFTLQPDGKTCKDINECLVNNGGCDHFCRNTVGSFECGCRKGYKLLTDERTCQDIDECSFERTCDHICINSPGSFQCLCHRGYILYGTTHCGDVDECSMSNGSCDQGCVNTKGSYECVCPPGRRLHWNRKDCVETGKCLSRA
B3: human SCUBE1 (SEQ ID NO:2) (other)
chain: T1 chain
modifications: glycosylated (N-linked, tunicamycin-sensitive)
notes: protein of 988 amino acids; also called Signal peptide-CUB-EGF-like domain-containing protein 1; recombinantly expressed SCUBE1

Data set [1] concerns the molecule itself. As to the kind of experiment: overexpression; method not given.
Data set [2] deals with T1, SCUBE1.Myc (human SCUBE1 tagged with …). As to the kind of experiment: co-immunoprecipitation of detergent lysates, anti-Myc IP, anti-Flag M2 blot (FIG. 8b). As to the method:
HEK-293 cells were transfected with expression plasmids encoding Flag-tagged full-length SCUBE1, SCUBE1-D1, SCUBE1-D2 and TLR2 (control) proteins, and, two days after transfection, cells were collected and homogenized. Samples of supernatant (S10) were centrifuged at 100,000×g for 30 min to give soluble fractions (S100) and pellets (P100 membrane fraction). Pellets were resuspended in original volumes of homogenization buffer with 0.1 M Na₂CO₃ (pH 12), sonicated briefly, and then incubated on ice for 30 min. Samples were centrifuged again at 100,000×g for 30 min. to give washed fractions S100′ and pellets P100′. Each fraction was subjected to SDS-PAGE and immunoblot analysis using anti-Flag M2 antibody. […] Upon disruption by sonication, however, they are released from the membrane and can be detected in the soluble membrane fraction. […] Flag-SCUBE1 and SCUBE1.Myc were singly or co-transfected in 293T cells. As a control, SCUBE1.Myc was expressed together with Flag-tagged IL-1β receptor (Flag.IL-1R1). Immunoprecipitation (IP) and Western blot (WB) were performed using antisera as indicated. The bands indicate the presence of protein complexes that can be precipitated by one antibody and detected by another. […] The spacer and CUB sequences are not required. […] In each case, a protein complex that could be precipitated with anti-Myc antibody was detected with anti-Flag M2 antibody.

For data set [3], the target named is B1. The data set is described as follows: overexpression; method not given.

With B1, the binding result in data set [1] is given as “binds”. On to B2, for which the binding result in data set [2] is on record as “binds”. For B3, the binding result in data set [1] and in data set [3] was “binds” in each case.
